Reference: the supplement of paper PMC10065799, “High-throughput profiling of sequence recognition by tyrosine kinases and SH2 domains using bacterial peptide display” (eLife, 2023)

Assays:
[1] = system: AncSZ; assay: phosphorylation enrichment, bacterial display (enrichment ratio); higher = better substrate or ligand; peptides without Tyr show the background
[2] = target: EPHB1 (UniProt P54762); assay: as above
[3] = target: EPHB2 (UniProt P29323); assay: as above
[4] = target: FGFR1 (UniProt P11362); assay: as above
Chain of FGFR1 (P11362 whole entry, looked up): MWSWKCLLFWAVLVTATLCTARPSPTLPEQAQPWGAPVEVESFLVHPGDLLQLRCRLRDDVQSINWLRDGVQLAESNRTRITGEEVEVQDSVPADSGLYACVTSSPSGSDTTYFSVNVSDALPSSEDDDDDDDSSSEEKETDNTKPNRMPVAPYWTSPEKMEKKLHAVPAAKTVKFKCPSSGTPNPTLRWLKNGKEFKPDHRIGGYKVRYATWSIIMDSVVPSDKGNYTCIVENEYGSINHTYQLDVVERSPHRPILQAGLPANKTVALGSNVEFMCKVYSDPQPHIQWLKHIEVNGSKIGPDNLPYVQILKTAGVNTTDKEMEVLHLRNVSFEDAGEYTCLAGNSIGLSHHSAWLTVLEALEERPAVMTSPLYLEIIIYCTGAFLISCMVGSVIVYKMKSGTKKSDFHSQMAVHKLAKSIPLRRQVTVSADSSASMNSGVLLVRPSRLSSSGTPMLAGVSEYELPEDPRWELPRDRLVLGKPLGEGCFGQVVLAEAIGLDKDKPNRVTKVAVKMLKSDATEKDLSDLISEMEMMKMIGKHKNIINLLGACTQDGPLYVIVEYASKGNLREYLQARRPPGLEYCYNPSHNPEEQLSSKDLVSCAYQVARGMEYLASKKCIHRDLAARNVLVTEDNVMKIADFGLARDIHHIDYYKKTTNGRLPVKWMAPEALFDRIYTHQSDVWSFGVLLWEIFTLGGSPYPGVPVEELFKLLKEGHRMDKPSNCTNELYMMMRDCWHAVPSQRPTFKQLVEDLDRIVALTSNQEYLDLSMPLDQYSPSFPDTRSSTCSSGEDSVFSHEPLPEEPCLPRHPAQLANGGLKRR

[5] = target: FGFR3 (UniProt P22607); assay: as above
[6] = system: Fer (mouse); assay: as above
[7] = target: Fes (UniProt P07332); assay: as above
[8] = target: Fyn (UniProt P06241); assay: as above
Chain of Fyn (P06241 whole entry, looked up): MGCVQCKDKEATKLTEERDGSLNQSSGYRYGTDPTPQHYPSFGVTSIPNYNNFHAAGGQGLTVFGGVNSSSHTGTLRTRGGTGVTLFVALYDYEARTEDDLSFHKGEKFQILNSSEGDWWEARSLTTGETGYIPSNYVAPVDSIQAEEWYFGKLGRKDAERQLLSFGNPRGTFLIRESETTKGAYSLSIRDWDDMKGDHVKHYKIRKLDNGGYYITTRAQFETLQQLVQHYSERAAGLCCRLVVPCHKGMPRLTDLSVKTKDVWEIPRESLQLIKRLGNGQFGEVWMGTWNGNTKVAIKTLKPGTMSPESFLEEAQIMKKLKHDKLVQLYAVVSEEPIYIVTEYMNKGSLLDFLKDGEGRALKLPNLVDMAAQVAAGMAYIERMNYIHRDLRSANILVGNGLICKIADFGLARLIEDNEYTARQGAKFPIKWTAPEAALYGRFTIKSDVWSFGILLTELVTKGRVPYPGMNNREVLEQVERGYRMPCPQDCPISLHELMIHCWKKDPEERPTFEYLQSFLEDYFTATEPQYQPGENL

[9] = target: Hck (UniProt P08631); assay: as above
Chain of Hck (P08631 whole entry, looked up): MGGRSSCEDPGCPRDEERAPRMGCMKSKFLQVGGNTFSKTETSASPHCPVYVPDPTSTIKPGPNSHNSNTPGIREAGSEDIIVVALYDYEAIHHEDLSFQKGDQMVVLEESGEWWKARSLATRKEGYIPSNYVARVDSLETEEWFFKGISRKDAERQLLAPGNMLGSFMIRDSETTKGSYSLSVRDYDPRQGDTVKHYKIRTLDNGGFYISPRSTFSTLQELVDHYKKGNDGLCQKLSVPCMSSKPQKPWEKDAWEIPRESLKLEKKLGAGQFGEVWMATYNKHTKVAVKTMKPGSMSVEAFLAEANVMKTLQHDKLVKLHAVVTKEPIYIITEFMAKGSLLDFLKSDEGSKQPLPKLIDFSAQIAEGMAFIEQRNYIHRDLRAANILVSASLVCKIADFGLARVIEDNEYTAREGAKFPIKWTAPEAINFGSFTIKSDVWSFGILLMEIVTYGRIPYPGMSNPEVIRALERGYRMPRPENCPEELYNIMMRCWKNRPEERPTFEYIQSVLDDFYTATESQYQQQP

[10] = target: Jak2 (UniProt O60674); assay: as above
Chain of Jak2 (O60674 whole entry, looked up): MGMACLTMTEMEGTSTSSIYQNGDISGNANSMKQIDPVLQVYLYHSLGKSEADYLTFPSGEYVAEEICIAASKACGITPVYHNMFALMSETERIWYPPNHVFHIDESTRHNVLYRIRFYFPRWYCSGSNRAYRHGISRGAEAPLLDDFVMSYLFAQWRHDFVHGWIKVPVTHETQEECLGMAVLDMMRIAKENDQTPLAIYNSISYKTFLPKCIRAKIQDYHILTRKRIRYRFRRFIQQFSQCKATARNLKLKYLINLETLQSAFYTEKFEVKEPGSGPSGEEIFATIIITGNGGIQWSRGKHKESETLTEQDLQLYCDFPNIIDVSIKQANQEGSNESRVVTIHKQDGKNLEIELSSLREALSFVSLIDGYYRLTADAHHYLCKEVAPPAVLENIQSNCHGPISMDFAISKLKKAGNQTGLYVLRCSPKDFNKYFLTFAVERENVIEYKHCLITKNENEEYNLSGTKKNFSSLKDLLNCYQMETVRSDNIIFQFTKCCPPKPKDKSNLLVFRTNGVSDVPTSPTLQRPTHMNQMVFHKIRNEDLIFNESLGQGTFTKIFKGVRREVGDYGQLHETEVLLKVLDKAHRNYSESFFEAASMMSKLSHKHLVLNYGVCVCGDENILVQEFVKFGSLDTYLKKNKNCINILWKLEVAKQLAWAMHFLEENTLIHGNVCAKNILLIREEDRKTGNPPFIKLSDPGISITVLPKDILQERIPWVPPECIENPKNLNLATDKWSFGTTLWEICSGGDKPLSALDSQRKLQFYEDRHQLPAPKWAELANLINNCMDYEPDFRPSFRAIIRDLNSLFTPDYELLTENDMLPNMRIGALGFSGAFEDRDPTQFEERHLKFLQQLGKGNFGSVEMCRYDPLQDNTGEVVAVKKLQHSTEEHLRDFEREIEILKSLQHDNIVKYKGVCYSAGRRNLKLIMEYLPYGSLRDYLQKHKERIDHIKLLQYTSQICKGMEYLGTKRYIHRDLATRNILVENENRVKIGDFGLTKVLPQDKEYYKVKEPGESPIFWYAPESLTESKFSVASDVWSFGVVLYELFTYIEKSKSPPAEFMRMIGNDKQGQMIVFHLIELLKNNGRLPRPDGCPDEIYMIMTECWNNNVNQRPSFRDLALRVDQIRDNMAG

[11] = target: MERTK (UniProt Q12866); assay: as above
[12] = system: c-Abl (mouse); assay: as above
[13] = system: c-Src; assay: as above
[14] = target: Grb2 SH2 (UniProt P62993); assay: SH2 binding enrichment of the phosphorylated peptide, bacterial display (enrichment ratio); higher = better substrate or ligand; peptides without Tyr show the background
[15] = target: SHP2-C SH2; assay: as above
[16] = target: c-Src SH2; assay: as above
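For SH2 binding enrichment of the phosphorylated peptide, bacterial display in this document: peptide library displayed on the E. coli surface as eCPX fusions, selected cells deep-sequenced, score is each peptide's frequency after selection divided by its frequency in the input.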
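For phosphorylation enrichment, bacterial display in this document: 11-residue human phosphosite peptides and single-mutation variants displayed on the E. coli surface, counted by deep sequencing, each peptide's frequency after selection divided by its frequency in the unselected input library; frequency after pTyr selection over input frequency; kinase dosed for 20-30% of maximal phosphorylation in three min.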

Chain of EPHB2 (P29323 whole entry, looked up): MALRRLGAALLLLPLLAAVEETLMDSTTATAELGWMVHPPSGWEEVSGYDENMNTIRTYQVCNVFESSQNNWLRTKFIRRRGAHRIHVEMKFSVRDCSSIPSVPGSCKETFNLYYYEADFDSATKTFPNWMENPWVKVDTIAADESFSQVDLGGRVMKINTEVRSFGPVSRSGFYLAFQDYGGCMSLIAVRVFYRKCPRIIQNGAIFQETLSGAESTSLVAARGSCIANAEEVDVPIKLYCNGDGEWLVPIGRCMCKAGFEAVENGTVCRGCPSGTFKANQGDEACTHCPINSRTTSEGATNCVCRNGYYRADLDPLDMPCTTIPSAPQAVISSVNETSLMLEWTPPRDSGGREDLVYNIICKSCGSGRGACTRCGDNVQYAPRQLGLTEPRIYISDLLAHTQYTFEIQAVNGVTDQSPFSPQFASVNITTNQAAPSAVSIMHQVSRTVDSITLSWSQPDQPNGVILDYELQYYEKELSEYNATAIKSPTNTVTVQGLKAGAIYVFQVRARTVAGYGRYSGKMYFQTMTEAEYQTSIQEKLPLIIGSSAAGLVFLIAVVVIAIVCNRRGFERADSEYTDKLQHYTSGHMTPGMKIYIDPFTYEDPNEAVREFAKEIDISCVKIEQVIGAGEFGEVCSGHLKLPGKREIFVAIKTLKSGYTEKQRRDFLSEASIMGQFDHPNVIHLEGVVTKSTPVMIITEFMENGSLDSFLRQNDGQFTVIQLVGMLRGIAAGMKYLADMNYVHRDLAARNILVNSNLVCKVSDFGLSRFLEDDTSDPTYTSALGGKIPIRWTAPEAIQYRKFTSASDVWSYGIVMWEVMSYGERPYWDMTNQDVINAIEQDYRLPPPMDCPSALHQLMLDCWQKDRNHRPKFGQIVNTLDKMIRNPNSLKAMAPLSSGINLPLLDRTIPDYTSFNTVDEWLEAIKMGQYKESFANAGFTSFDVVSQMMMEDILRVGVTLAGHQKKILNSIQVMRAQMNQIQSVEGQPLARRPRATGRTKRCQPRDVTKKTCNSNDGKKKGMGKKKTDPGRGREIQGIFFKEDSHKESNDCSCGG
Chain of EPHB1 (P54762 whole entry, looked up): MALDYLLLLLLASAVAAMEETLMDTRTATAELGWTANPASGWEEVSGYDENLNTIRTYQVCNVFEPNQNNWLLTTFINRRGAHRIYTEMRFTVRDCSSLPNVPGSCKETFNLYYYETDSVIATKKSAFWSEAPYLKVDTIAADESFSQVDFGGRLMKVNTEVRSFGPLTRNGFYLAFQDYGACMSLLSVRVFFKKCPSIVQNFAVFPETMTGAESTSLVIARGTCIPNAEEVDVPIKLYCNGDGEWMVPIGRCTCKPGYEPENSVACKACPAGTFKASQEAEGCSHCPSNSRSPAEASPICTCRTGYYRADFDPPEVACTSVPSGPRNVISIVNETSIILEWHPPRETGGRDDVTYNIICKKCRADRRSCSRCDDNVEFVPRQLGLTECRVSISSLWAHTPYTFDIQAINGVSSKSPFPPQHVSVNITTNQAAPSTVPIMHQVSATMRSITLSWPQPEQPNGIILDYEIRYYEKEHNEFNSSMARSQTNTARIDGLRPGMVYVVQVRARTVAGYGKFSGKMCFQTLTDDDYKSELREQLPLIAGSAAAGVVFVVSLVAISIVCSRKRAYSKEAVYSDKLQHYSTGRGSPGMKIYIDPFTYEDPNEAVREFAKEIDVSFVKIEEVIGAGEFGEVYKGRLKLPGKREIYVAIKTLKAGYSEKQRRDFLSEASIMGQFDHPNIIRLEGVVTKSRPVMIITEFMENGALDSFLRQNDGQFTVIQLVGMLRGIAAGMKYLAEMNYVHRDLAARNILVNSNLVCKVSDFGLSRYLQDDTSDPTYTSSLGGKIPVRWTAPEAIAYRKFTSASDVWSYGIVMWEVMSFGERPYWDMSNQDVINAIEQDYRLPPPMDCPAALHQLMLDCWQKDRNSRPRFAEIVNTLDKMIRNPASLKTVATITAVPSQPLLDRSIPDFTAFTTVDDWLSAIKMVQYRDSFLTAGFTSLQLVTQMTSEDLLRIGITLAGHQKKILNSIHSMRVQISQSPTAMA

SH2 binding enrichment [14] | SH2 binding enrichment [15] | SH2 binding enrichment [16] | Sequence | phosphorylation enrichment [1] | phosphorylation enrichment [2] | phosphorylation enrichment [3] | phosphorylation enrichment [4] | phosphorylation enrichment [5] | phosphorylation enrichment [6] | phosphorylation enrichment [7] | phosphorylation enrichment [8] | phosphorylation enrichment [9] | phosphorylation enrichment [10] | phosphorylation enrichment [11] | phosphorylation enrichment [12] | phosphorylation enrichment [13]
1.99 | 2.05 | 1.41 | RLLVVYPWTQR [HBB_Y36] | 1.09 | 0.553 | 0.632 | 0.591 | 0.722 | 0.5 | 1.06 | 0.574 | 0.497 | 0.967 | 0.523 | 0.77 | 0.53
0.759 | 0.557 | 0.574 | RPYRPYIIRGM [LRP5_Y1531] | 0.949 | 0.531 | 0.842 | 0.748 | 0.845 | 0.536 | 1.4 | 0.987 | 1.04 | 0.826 | 0.852 | 0.587 | 0.917
0.982 | 0.624 | 0.49 | RRESQYQENRG [LRCH3_Y354] | 0.835 | 0.431 | 0.494 | 0.479 | 0.663 | 0.563 | 0.571 | 0.637 | 0.503 | 0.582 | 0.472 | 0.73 | 0.475
0.752 | 0.688 | 0.426 | RRFVFYFSFLL [PTEN_Y177_YF] | 1.06 | 0.654 | 0.655 | 0.938 | 0.608 | 0.829 | 0.744 | 0.741 | 0.899 | 0.622 | 0.593 | 0.502 | 0.611
0.565 | 0.641 | 0.599 | RRNVYYYSYLL [PTEN_Y177_Y174N] | 1.16 | 1.74 | 0.707 | 6.81 | 4.21 | 0.556 | 0.796 | 1.14 | 1.13 | 2.42 | 8.2 | 0.616 | 1.79
1.17 | 1.11 | 1.28 | RSFPSYYTSHV [NEFL_Y442] | 1.05 | 2.37 | 1.34 | 2.19 | 1.28 | 0.65 | 1.05 | 0.775 | 1.1 | 3.72 | 7.71 | 1.02 | 1.12
0.697 | 0.432 | 0.545 | RVAFQYGVTDL [MYBPC3_Y340_I336V] | 1.16 | 0.461 | 0.827 | 0.456 | 0.842 | 0.576 | 1.27 | 0.49 | 0.599 | 1.08 | 0.471 | 0.764 | 0.493
2.11 | 1.67 | 1.53 | RVKPIYFHTQG [AR_Y916_K911R] | 1.16 | 0.644 | 0.804 | 0.706 | 0.765 | 0.764 | 1.69 | 0.642 | 0.622 | 1.6 | 0.763 | 1.04 | 0.952
1.95 | 3.37 | 2.06 | RVKTPYSLKRW [BMPR2_Y979] | 1.19 | 0.608 | 0.516 | 0.666 | 0.931 | 0.756 | 1.17 | 0.582 | 0.745 | 1.24 | 0.572 | 0.944 | 0.616
0.468 | 0.503 | 0.273 | RVQKRYIFDNV [RCN1_Y115] | 0.531 | 0.291 | 0.472 | 0.484 | 0.619 | 0.381 | 0.442 | 0.319 | 0.328 | 0.455 | 0.422 | 0.252 | 0.394
0.83 | 0.729 | 0.588 | SCTFTYLLGDR [ETHE1_Y38] | 1.11 | 0.491 | 0.56 | 0.446 | 0.575 | 0.426 | 1.2 | 0.491 | 0.404 | 0.921 | 0.409 | 0.604 | 0.515
0.645 | 0.51 | 0.418 | SDVCMYRKNIY [SYNE2_Y570] | 1.12 | 0.618 | 0.541 | 0.502 | 0.681 | 0.491 | 1.08 | 0.416 | 0.51 | 0.875 | 0.419 | 0.685 | 0.424
0.765 | 0.571 | 0.75 | SFGENYDNSKS [MAN1B1_Y60] | 0.766 | 0.434 | 0.461 | 0.452 | 0.548 | 0.444 | 0.958 | 0.438 | 0.408 | 0.89 | 0.567 | 0.833 | 0.464

Further lines, the sequence ahead of its results:

Sequence | SH2 binding enrichment [14] | SH2 binding enrichment [15] | SH2 binding enrichment [16] | phosphorylation enrichment [1] | phosphorylation enrichment [2] | phosphorylation enrichment [3] | phosphorylation enrichment [4] | phosphorylation enrichment [5] | phosphorylation enrichment [6] | phosphorylation enrichment [7] | phosphorylation enrichment [8] | phosphorylation enrichment [9] | phosphorylation enrichment [10] | phosphorylation enrichment [11] | phosphorylation enrichment [12] | phosphorylation enrichment [13]
RLLVVFPWTQR [HBB_Y36_Y36F] | 1.94 | 1.95 | 1.23 | 2.13 | 0.574 | 0.766 | 0.67 | 1.08 | 0.608 | 1.73 | 0.545 | 0.829 | 1.59 | 0.784 | 1.11 | 0.584
RLNWIYFKDQT [RS1_Y165_YF] | 1.01 | 1.01 | 0.842 | 2.98 | 1.08 | 0.918 | 1.17 | 1.35 | 0.774 | 2.3 | 0.757 | 1.02 | 2.15 | 0.49 | 1.35 | 0.855
RPASQYPHQVP [ADAM12_Y895_P893S] | 0.883 | 0.791 | 0.53 | 0.533 | 0.205 | 0.689 | 0.476 | 0.403 | 0.464 | 0.548 | 0.61 | 0.553 | 0.56 | 0.419 | 0.374 | 0.459
RPSRWYQFRVA [ANOS1_Y259] | 0.771 | 0.568 | 0.541 | 1.22 | 0.834 | 0.717 | 0.748 | 0.887 | 1.03 | 1.55 | 1.01 | 0.642 | 0.894 | 0.699 | 0.955 | 0.756
RREGVYRNNID [PTEN_Y46_L42R] | 0.621 | 0.451 | 0.436 | 0.55 | 0.324 | 0.517 | 0.392 | 0.516 | 0.469 | 0.925 | 0.664 | 0.461 | 0.778 | 0.752 | 0.783 | 0.8
RRIHSYRSHLW [VHL_Y112_G114S] | 0.574 | 0.822 | 0.57 | 0.576 | 0.81 | 2.19 | 1.25 | 0.778 | 0.507 | 1.17 | 0.833 | 0.601 | 0.487 | 0.718 | 0.395 | 0.439
RSFPSYFTSHV [NEFL_Y442_YF] | 0.888 | 1.08 | 0.73 | 0.869 | 0.672 | 0.761 | 0.899 | 0.634 | 0.525 | 0.887 | 0.65 | 0.477 | 1.8 | 0.629 | 0.772 | 0.481
RSGIYYKPESL [L2HGDH_Y103_H98R] | 0.935 | 0.745 | 0.854 | 1.17 | 2.37 | 3.34 | 5.07 | 3.3 | 0.699 | 0.915 | 2.43 | 4.86 | 2.29 | 17 | 45.6 | 2.6
RSSGSYGGGGQ [HNRNPA1_Y341_P340S] | 0.777 | 0.68 | 0.457 | 0.492 | 1.5 | 0.606 | 0.536 | 0.485 | 0.438 | 0.532 | 0.539 | 0.423 | 0.354 | 0.415 | 0.527 | 0.366
RSSPVYVGRVV [TGM2_Y219] | 1.13 | 1.39 | 0.758 | 1.18 | 0.59 | 0.796 | 0.77 | 0.82 | 0.945 | 1.03 | 1.42 | 2.22 | 1.03 | 0.818 | 1.71 | 1.42
RTCSSYTIEKI [PARP15_Y520_A521T] | 0.813 | 0.739 | 0.59 | 0.937 | 0.608 | 0.474 | 0.475 | 1.18 | 0.502 | 1.51 | 0.638 | 0.726 | 1.13 | 0.533 | 0.84 | 0.544
RVEDAYILTCN [CCT6A_Y229] | 0.663 | 0.54 | 0.671 | 1.07 | 0.515 | 0.487 | 0.721 | 0.689 | 4.93 | 0.928 | 0.839 | 0.692 | 0.772 | 0.498 | 0.565 | 1
SAASSYSFSDL [EMD_Y59] | 0.846 | 0.598 | 0.544 | 0.839 | 0.508 | 0.47 | 0.434 | 0.666 | 0.478 | 0.951 | 0.477 | 0.468 | 0.874 | 0.498 | 0.753 | 0.455
SCPANYFAFKI [FAM3D_Y65_P60S] | 1.12 | 0.996 | 0.823 | 1.16 | 3.97 | 2.09 | 7.58 | 5.33 | 0.785 | 1.08 | 0.901 | 1.05 | 5.24 | 7.13 | 3.31 | 2.62
SDGHEYIYVDP [PDGFRB_Y579] | 0.779 | 0.662 | 0.557 | 3.82 | 2.17 | 1.72 | 8.64 | 5.43 | 1.66 | 0.988 | 1.07 | 1.2 | 1.62 | 0.92 | 1.6 | 2
SDVDLYQVRTA [PSMD9_Y70] | 0.705 | 0.599 | 0.444 | 0.792 | 0.555 | 0.538 | 0.419 | 0.505 | 0.648 | 0.738 | 1.41 | 4.25 | 0.645 | 0.411 | 0.735 | 1.89
SENYTYIWWLN [PSG4_Y271_K267E] | 0.694 | 0.636 | 0.399 | 1.27 | 1.53 | 1.24 | 1.67 | 1.82 | 0.694 | 1.33 | 0.403 | 0.485 | 1.27 | 0.605 | 0.829 | 0.362
SESSFYKSLNL [NGEF_Y289_A286S_YF] | 0.775 | 0.495 | 0.48 | 1.06 | 0.598 | 0.516 | 0.477 | 0.816 | 0.562 | 1.25 | 0.479 | 0.521 | 1.06 | 0.468 | 0.853 | 0.508
SFHCSYSEIKD [DCLRE1C_Y322_S320C] | 0.704 | 2.29 | 3.86 | 1.06 | 0.599 | 0.59 | 0.558 | 0.811 | 0.639 | 1.21 | 0.585 | 0.568 | 0.9 | 0.497 | 0.873 | 0.647
SFVMVYEGNAR [INSR_Y1038_G1035V] | 0.973 | 0.942 | 0.531 | 1.28 | 0.621 | 0.683 | 0.562 | 0.85 | 0.551 | 1.25 | 0.634 | 0.747 | 1.22 | 0.393 | 0.618 | 0.77
